Values of other authors in PMC3094721.

Target: ChemR23 (Homo sapiens) (UniProt Q99788)
Test: radioligand

Chain of chemerin peptide (Q99969 21-157): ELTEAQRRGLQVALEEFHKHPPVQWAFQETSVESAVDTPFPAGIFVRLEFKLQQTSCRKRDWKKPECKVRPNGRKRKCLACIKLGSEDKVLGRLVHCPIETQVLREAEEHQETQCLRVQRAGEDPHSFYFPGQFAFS
Chain of ChemR23 (Homo sapiens) (Q99788 whole entry): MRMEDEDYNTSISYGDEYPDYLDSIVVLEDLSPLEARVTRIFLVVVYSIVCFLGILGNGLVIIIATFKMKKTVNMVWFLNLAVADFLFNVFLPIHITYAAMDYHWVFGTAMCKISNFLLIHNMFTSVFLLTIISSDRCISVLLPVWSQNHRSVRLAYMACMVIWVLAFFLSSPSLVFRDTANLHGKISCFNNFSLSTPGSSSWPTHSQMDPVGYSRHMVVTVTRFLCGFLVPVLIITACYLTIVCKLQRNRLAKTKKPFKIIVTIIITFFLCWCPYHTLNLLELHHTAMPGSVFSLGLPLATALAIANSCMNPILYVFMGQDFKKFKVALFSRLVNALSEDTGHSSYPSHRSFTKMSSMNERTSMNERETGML

chemerin peptide (from UniProt Q99969)
Ki: 429 nM
